The target in assay [1] is recombinant histidine tagged CP12 from Thalassiosira pseudonana (Thalassiosira pseudonana). The experiment in a line: SEC-SAXS; 50 µL of His-tagged CP12 at 11 mg/mL on Agilent Bio-SEC-3 300 Å, 15 °C, 30 mM Tris, 50 mM NaCl, 2 mM EDTA, 1 mM TCEP, pH 7.5; mass from the forward scattering intensity.
In assay [2] the target is CP12 from Thalassiosira pseudonana, recombinant, after His tag removal with thrombin (Thalassiosira pseudonana). As to the kind of experiment: native MS; native ESI-MS, 5 µM CP12 without histidine tag, 200 mM ammonium acetate pH 8.0, source temperature 20 °C; dimer to monomers.

Usually stoichiometry N stands for the number of molecules, sites or subunits per partner or assembly. For “recombinant histidine tagged CP12 from Thalassiosira pseudonana (natural protein)”, in assay [1], the stoichiometry N came out at 2. In the case of “CP12 from Thalassiosira pseudonana, recombinant, after His tag removal with thrombin (natural protein)”, the stoichiometry N in assay [2] was 2.

The values are drawn from PMC7992989.
